Source: patent publication US20240309104A1 (PROMETHEUS BIOSCIENCES, published 2024)
“And” between values parts separate entries of the source, which are not always exact repeats. Equal entries are not always repeated.

Experiments:
Test in all cases: cell-based or functional assay
[1] = molecular target: T1, recombinant human TL1A protein (human, UniProt O95150 72-251)
T1 sequence (looked up): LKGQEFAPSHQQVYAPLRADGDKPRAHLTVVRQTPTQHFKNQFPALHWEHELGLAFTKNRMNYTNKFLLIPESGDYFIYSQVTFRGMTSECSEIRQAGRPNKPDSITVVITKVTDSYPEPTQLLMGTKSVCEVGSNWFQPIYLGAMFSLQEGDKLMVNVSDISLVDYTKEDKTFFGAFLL

[2] = molecular target: T2, TL1A produced by PBMCs in cynomolgus monkey whole blood (cynomolgus monkey, UniProt G7PRK8 72-251)
T2 sequence: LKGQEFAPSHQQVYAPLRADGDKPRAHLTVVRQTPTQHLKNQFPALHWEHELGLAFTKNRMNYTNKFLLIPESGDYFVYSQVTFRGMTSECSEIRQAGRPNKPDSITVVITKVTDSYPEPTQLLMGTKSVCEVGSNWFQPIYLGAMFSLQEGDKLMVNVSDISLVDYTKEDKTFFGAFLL

[3] = molecular target: T3, recombinant cynomolgus monkey TL1A protein (cynomolgus monkey, UniProt G7PRK8 72-251)
T3 sequence: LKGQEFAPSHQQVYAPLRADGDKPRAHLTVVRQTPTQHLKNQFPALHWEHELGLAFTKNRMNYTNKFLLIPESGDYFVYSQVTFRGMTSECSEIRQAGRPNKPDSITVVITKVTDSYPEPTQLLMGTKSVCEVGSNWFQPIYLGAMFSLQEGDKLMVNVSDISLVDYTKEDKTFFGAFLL

inhibition of TL1A-induced caspase activation in TF-1 cells (IC50) [1]: 0.27 nM
inhibition of the IFN-γ response in monkey whole blood (mean IC50) [2]: 1.54 nM and 289 ng/mL
inhibition of TL1A-induced caspase activation in TF-1 cells (IC50) [3]: 0.59 nM
B1: anti-TL1A antibody A219 (antibody, V domains shown)
VH: QVQLVQSGAEVKKPGASVKVSCKASGFDIQDTYMHWVKQRPGQGLEWMGRIDPASGHTKYDPKFQVRVTITRDTSTSTVYLELSSLRSEDTAVYYCARSGGLPDVWGQGTTVTVSS
VL: EIVLTQSPGTLSLSPGERATLSCRASSSVSYMYWYQQKPGQAPRPLIYATSNLASGIPDRFSGSGSGTDFTLTISRLEPEDFAVYYCQQWEGNPRTFGGGTKLEIK
